Reference: patent US20170306037A1 (Novartis, published 2017)
Changes are numbered by the printed parent chain. One block for each binder: values may come before it.

How the values were obtained:
[1] = molecular target: cyno GITR (cGITR), form not stated (cynomolgus monkey); assay: Biacore (SPR)
[2] = molecular target: cyno GITR (cGITR), form not stated (cynomolgus monkey); assay: Biacore (SPR), IgG
[3] = molecular target: T1, human GITR (hGITR), form not stated (human, UniProt Q9Y5U5 26-162, limits assumed); assay: Biacore (SPR), IgG
T1 construct: the construct is not described
T1 sequence: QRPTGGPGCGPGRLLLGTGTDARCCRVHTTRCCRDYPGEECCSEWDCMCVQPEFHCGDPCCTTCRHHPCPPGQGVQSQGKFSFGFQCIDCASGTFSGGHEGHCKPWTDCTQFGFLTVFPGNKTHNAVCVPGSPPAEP

CD40 = CD40 (human, UniProt P25942); assay: specificity ELISA, bacterial lysate on HisGrab nickel plate
Chain of CD40 (P25942 21-193 limits assumed): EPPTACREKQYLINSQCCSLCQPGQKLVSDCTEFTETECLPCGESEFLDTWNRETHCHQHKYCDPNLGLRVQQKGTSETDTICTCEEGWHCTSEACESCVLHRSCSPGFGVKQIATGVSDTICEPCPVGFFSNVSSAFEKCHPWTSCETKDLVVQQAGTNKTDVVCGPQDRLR
Method: (§1) For the specificity ELISA, a crude cell lysate was made from bacteria expressing members of the TNFRSF family. To prevent nonspecific binding to the plate 50 μL of 5% BSA was added per mL of bacterial lysate. […] The plate was then rinsed three times with PBST, then MAB was diluted to 0.5 μg/mL in 10% FBS in PBS and 100 μL was added to each well. The plate was incubated for 1 hour at room temperature and then rinsed three times with PBST. Anti-human kappa antibody (Sigma #A7164) conjugated to HRP was diluted 1:5000 in 1:1 PBST: 10% FBS in PBS and 100 μL added to each well. The plate was incubated for 1 hour at room temperature, and then washed three times with PBST. 100 μL of SureBlue TMB substrate was added to each well and the plate was incubated for about 10 min at room temperature before stopping the reaction with 100 μL /well of 2N H₂SO₄.

DR5 = DR5 (human, UniProt O14763); assay: as above
Method: as §1

DcR1 = molecular target: T2, DcR1 (human, UniProt O14798); assay: as above
T2 sequence (receptor, looked up): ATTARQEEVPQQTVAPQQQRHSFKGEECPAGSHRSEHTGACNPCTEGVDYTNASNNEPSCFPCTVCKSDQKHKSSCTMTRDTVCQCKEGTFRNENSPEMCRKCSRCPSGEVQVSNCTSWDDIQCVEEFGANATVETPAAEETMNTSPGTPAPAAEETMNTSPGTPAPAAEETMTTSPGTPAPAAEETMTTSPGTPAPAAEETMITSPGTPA
Method: as §1

DcR3 = molecular target: T3, DcR3 (human, UniProt O95407); assay: as above
T3 sequence (receptor, looked up): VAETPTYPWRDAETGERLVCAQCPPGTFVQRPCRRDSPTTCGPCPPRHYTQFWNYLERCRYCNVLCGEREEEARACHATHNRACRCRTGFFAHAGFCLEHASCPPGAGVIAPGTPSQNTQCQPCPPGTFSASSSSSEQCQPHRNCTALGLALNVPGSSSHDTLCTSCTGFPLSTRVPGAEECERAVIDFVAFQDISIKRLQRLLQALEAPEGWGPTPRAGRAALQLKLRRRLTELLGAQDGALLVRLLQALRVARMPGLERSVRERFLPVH
Method: as §1

DR3 = molecular target: T4, DR3 (human, UniProt Q93038); assay: as above
T4 sequence (receptor, looked up): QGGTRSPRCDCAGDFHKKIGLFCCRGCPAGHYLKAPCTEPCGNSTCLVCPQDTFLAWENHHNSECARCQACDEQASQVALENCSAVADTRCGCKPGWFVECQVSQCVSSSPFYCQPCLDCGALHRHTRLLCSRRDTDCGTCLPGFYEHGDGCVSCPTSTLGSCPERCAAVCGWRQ
Method: as §1

OPG = molecular target: T5, OPG (human, UniProt O00300); assay: as above
T5 sequence (receptor, looked up): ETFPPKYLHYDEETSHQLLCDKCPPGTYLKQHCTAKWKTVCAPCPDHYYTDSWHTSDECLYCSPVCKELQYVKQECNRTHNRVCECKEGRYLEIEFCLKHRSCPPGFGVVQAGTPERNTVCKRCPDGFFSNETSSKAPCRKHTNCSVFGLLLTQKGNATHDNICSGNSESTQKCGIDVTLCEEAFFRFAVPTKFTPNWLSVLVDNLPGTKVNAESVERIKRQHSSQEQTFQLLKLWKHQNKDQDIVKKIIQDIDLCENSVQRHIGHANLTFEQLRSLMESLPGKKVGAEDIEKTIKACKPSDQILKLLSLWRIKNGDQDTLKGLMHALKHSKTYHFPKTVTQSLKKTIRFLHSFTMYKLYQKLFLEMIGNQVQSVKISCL
Method: as §1

TACI = molecular target: T6, TACI (human, UniProt O14836); assay: as above
T6 sequence (receptor, looked up): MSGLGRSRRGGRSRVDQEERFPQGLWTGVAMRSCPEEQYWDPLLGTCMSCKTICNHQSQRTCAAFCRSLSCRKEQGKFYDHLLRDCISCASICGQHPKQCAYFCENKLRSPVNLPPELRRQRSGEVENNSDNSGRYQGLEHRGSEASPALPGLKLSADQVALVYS
Method: as §1

DR4 = molecular target: T7, DR4 (human, UniProt O00220); assay: as above
T7 sequence (receptor, looked up): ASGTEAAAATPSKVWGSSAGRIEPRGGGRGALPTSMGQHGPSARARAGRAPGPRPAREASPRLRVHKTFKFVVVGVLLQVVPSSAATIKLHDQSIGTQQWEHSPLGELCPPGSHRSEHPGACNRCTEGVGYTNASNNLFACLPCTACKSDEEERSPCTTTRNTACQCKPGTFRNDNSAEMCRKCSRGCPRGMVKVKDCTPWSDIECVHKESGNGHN
Method: as §1

BCMA = molecular target: T8, BCMA (human, UniProt Q02223); assay: as above
T8 sequence (receptor, looked up): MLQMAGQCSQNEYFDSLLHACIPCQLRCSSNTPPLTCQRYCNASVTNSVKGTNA
Method: as §1

TNFR3 = TNFR3 (human, UniProt P36941); assay: as above
Chain of TNFR3 (P36941 31-227 limits assumed): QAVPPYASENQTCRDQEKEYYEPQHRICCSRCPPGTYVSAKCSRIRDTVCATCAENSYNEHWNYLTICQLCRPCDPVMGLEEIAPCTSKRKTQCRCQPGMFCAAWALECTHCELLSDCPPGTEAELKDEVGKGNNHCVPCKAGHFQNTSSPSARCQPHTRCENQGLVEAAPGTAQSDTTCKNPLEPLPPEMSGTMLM
Method: as §1

CD137 = molecular target: T9, CD137 (human, UniProt Q07011); assay: as above
T9 construct: also called TNFRSF9
Method: as §1

fold lower binding affinity for cyno GITR than for human GITR [1]: 2 to 3 fold
Kd [2]: 1.78 nM
Kd [3]: 0.684 nM
B1: MAB4 (IgG1 kappa) (antibody, V domains shown)
VH: EVQLVESGGGLVQSGGSLRLSCAASGFSLSSYGVDWVRQAPGKGLEWVGVIWGGGGTYYASSLMGRFTISRDNSKNTLYLQMNSLRAEDTAVYYCAKHAYGHDGGFAMDYWGQGTLVTVSS
VL: EIVMTQSPATLSVSPGERATLSCRASESVSSNVAWYQQRPGQAPRLLIYGASNRATGIPARFSGSGSGTDFTLTISRLEPEDFAVYYCGQSYSYPFTFGQGTKLEIKR
binding result (CD40): no binding (tested: not on the sheet; paragraph 335: 0.5 µg/mL)
binding result (DR5): no binding (tested: not on the sheet; paragraph 335: 0.5 µg/mL)
binding result (DcR1): no binding (tested: not on the sheet; paragraph 335: 0.5 µg/mL)
binding result (DcR3): no binding (tested: not on the sheet; paragraph 335: 0.5 µg/mL)
binding result (DR3): no binding (tested: not on the sheet; paragraph 335: 0.5 µg/mL)
binding result (OPG): no binding (tested: not on the sheet; paragraph 335: 0.5 µg/mL)
binding result (TACI): no binding (tested: not on the sheet; paragraph 335: 0.5 µg/mL)
binding result (DR4): no binding (tested: not on the sheet; paragraph 335: 0.5 µg/mL)
binding result (BCMA): no binding (tested: not on the sheet; paragraph 335: 0.5 µg/mL)
binding result (TNFR3): no binding (tested: not on the sheet; paragraph 335: 0.5 µg/mL)
binding result (CD137): no binding (tested: not on the sheet; paragraph 335: 0.5 µg/mL)

fold lower binding affinity for cyno GITR than for human GITR [1]: 2 to 3 fold
Kd [2]: 1.87 nM
Kd [3]: 0.973 nM
B2: MAB5 (IgG1 kappa) (antibody, V domains shown)
VH: B1 VH with V48L, A60T
VL: B1 VL
notes: also called MABS (misprint of MAB5)
binding result (CD40): no binding (tested: not on the sheet; paragraph 335: 0.5 µg/mL)
binding result (DR5): no binding (tested: not on the sheet; paragraph 335: 0.5 µg/mL)
binding result (DcR1): no binding (tested: not on the sheet; paragraph 335: 0.5 µg/mL)
binding result (DcR3): no binding (tested: not on the sheet; paragraph 335: 0.5 µg/mL)
binding result (DR3): no binding (tested: not on the sheet; paragraph 335: 0.5 µg/mL)
binding result (OPG): no binding (tested: not on the sheet; paragraph 335: 0.5 µg/mL)
binding result (TACI): no binding (tested: not on the sheet; paragraph 335: 0.5 µg/mL)
binding result (DR4): no binding (tested: not on the sheet; paragraph 335: 0.5 µg/mL)
binding result (BCMA): no binding (tested: not on the sheet; paragraph 335: 0.5 µg/mL)
binding result (TNFR3): no binding (tested: not on the sheet; paragraph 335: 0.5 µg/mL)
binding result (CD137): no binding (tested: not on the sheet; paragraph 335: 0.5 µg/mL)
